According to publication doi:10.1101/2024.10.21.619360:

Key:
[1] = target: bovine complement factor I (bovine (B. taurus)); experiment: BLI; biotinylated bovine FI (150 nM) on streptavidin biosensors, PmSLP-1 as analyte at 0-1600 nM, Octet RED96, 30°C, PBS pH 7.4 with 0.01% Tween 20; steady-state analysis, one-site fit
[2] = target: bovine complement factor I; experiment: biolayer interferometry; settings: n=3; parent: 27 ± 6
[3] = target: bovine complement factor I; experiment: BLI; settings: 1600 nM PmSLP-1 mutant; biotinylated bovine FI on streptavidin sensors; 3 independent replicates; read off a plot
[4] = target: bovine complement factor I (bovine (B. taurus)); experiment: cryo-EM structure; PmSLP-1 and FI mixed 5:1, complex isolated on Superdex Increase 200 in PBS pH 7.4, 0.25 mg/mL on gold grids, 40° tilt; dimer of the complex, protomer refined to 3.5 Å

Row | Substance | Kd [1] [nM] | Kd [2] [nM] | response [3] [AU] | stoichiometry N [4]
1 | PmSLP-1^15 (PmSLP-1^15-318), surface lipoprotein of Pasteurella multocida strain 36950 (domain or fragment) | 27 | – | – | –
2 | PmSLP-1^15 (PmSLP-1^15-318), surface lipoprotein of Pasteurella multocida strain 36950 D121A | – | 117 | 0.19 | –
3 | PmSLP-1^15 (PmSLP-1^15-318), surface lipoprotein of Pasteurella multocida strain 36950 D124R | – | 53 | 0.24 | –
4 | PmSLP-1^15 (PmSLP-1^15-318), surface lipoprotein of Pasteurella multocida strain 36950 D210A | – | 272 | 0.14 | –
5 | PmSLP-1^15 (PmSLP-1^15-318), surface lipoprotein of Pasteurella multocida strain 36950 E132R | – | 28 | 0.22 | –
6 | PmSLP-1^15 (PmSLP-1^15-318), surface lipoprotein of Pasteurella multocida strain 36950 E240A | – | – | -0.0015 | –
7 | PmSLP-1^15 (PmSLP-1^15-318), surface lipoprotein of Pasteurella multocida strain 36950 I133D | – | 43 | 0.24 | –
8 | PmSLP-1^15 (PmSLP-1^15-318), surface lipoprotein of Pasteurella multocida strain 36950 K236E | – | 33 | 0.24 | –
9 | PmSLP-1^15 (PmSLP-1^15-318), surface lipoprotein of Pasteurella multocida strain 36950 L127D | – | 85 | 0.23 | –
10 | PmSLP-1^15 (PmSLP-1^15-318), surface lipoprotein of Pasteurella multocida strain 36950 R167A | – | 107 | 0.18 | –
11 | PmSLP-1^95 (PmSLP-1^95-318 SERp) (domain or fragment) | 39 | – | – | –
12 | bovine complement factor I (enzyme) | – | – | – | 2
